# Measurements from the Immune Epitope Database (IEDB).
# Assays:
# HLA-B*18:01 [1] = assay: IEDB peptide-MHC binding, purified MHC/competitive/radioactivity; filed as Kd, often an IC50 or EC50 that approximates it; ≥ and ≤ were set here for values at or beyond the usual limits of such assays
# HLA-B*40:01 = assay: as above
# HLA-B*40:02 = assay: as above
# HLA-B*44:02 = assay: as above
# HLA-B*44:03 = assay: as above
# HLA-B*45:01 = assay: as above
# HLA-A*68:02 = assay: IEDB peptide-MHC binding, purified MHC/competitive/fluorescence; filed as Kd, often an IC50 or EC50 that approximates it; ≥ and ≤ were set here for values at or beyond the usual limits of such assays
# HLA-A*02:01 = assay: as above; details: source organism: Homo sapiens
# HLA-A*03:01 = assay: as above; details: source organism: Homo sapiens
# HLA-A*24:03 = assay: as above
# HLA-A*26:01 = assay: as above; details: source organism: Homo sapiens
# HLA-B*15:01 = assay: as above; details: source organism: Homo sapiens
# HLA-B*18:01 [2] = assay: as above; details: source organism: Homo sapiens
# HLA-B*27:03 = assay: as above; details: source organism: Homo sapiens
# HLA-B*46:01 = assay: as above; details: source organism: Homo sapiens
# HLA-B*57:01 = assay: as above; details: source organism: Homo sapiens
# [3] = source organism: Mammarenavirus brazilense
# [4] = source organism: Mammarenavirus juninense
# [5] = source organism: SARS coronavirus Tor2
# [6] = source organism: Mammarenavirus machupoense
Sequence,Kd (HLA-B*18:01 [1]; [5]) [nM],Kd (HLA-B*40:01; [5]) [nM],Kd (HLA-B*40:02; [5]) [nM],Kd (HLA-B*44:02; [5]) [nM],Kd (HLA-B*44:03; [5]) [nM],Kd (HLA-B*45:01; [5]) [nM],other results
AENGELTEI,–,–,–,–,–,–,Kd (HLA-B*18:01 [1]; [3]): ≥ 77500 nM; Kd (HLA-B*40:01; [3]): 2030 nM; Kd (HLA-B*40:02; [3]): 47.8 nM; Kd (HLA-B*44:02; [3]): 181 nM; Kd (HLA-B*44:03; [3]): 319 nM; Kd (HLA-B*45:01; [3]): 74 nM
DETKKQVNLM,–,–,–,–,–,–,Kd (HLA-B*18:01 [1]; [4]): 9010 nM; Kd (HLA-B*40:01; [4]): 14600 nM; Kd (HLA-B*40:02; [4]): ≥ 70800 nM; Kd (HLA-B*44:02; [4]): ≥ 64600 nM; Kd (HLA-B*44:03; [4]): ≥ 70100 nM; Kd (HLA-B*45:01; [4]): ≥ 33100 nM
SETLLPLTQY,66.5,13100,1880,52.1,33.2,1750,–
NCADHFEGV,–,–,–,–,–,–,Kd (HLA-A*68:02; source organism: Escherichia coli HS): 1.5 nM
SDTQIPGVC,–,–,–,–,–,–,Kd (HLA-B*18:01 [1]; [4]): ≥ 77500 nM; Kd (HLA-B*40:01; [4]): ≥ 65600 nM; Kd (HLA-B*40:02; [4]): 12200 nM; Kd (HLA-B*44:02; [4]): ≥ 56200 nM; Kd (HLA-B*44:03; [4]): ≥ 78100 nM; Kd (HLA-B*45:01; [4]): ≥ 51000 nM
ELWDPSTEA,–,–,–,–,–,–,Kd (HLA-A*68:02; source organism: Burkholderia mallei NCTC 10229): 78.1 nM
QEYADVFHLY,147,553,110,11.9,6.61,608,–
FEEAALCTFL,477,1.98,14,96.2,45.9,163,–
REFVFKNKDG,≥ 70500,156,11500,11500,515,5420,–
WLGHPFTPV,–,–,–,–,–,–,Kd (HLA-A*02:01): 0.3 nM; Kd (HLA-A*03:01): ≥ 20000 nM; Kd (HLA-A*24:03; source organism: Homo sapiens): ≥ 20000 nM; Kd (HLA-A*26:01): ≥ 20000 nM; Kd (HLA-B*15:01): ≥ 20000 nM; Kd (HLA-B*18:01 [2]): ≥ 20000 nM; Kd (HLA-B*27:03): ≥ 20000 nM; Kd (HLA-B*46:01): ≥ 20000 nM; Kd (HLA-B*57:01): ≥ 20000 nM
SEAFEYYHTL,2140,1.18,6.54,10.5,18.4,60.4,–
PFGQWDQTF,–,–,–,–,–,–,Kd (HLA-A*24:03; source organism: Yersinia pestis Antiqua): 209 nM
EEVLDVCPL,–,–,–,–,–,–,Kd (HLA-B*18:01 [1]; [6]): 368 nM; Kd (HLA-B*40:01; [6]): 70.2 nM; Kd (HLA-B*40:02; [6]): 85.2 nM; Kd (HLA-B*44:02; [6]): 13700 nM; Kd (HLA-B*44:03; [6]): 5440 nM; Kd (HLA-B*45:01; [6]): 2480 nM
SEVGICLST,4510,241,10.6,120,20.4,8.52,–
